According to the PETadex activity labels (doi:10.3390/microorganisms12010138):

B1: unnamed (protein)
chain: MKKLLKVLLIIFLVIVVLVIGLVIFLTIASGKQNAPKEYWNAIASEGTIEKEYNKLGSYEFESKVYDAPKVDSHDNNFVVYMPKEEGTYPLVVMVNGSGTPWDKYKAVFEHFASWGYVVVGCNYEISWDGKHASETLDFALNTKEIADKVDTSKVAVCGHSQGGEGAFNAALEYDNSDMYKAIISLSPTNQELALGLKWGFNLDTDDMYAYRLENVTIPTMIIAGTGKFDSETVTPLYKMEDMFEQLNTDVVMARLSNNVDHGAVLYEANGYVIAWLDYYLKGIETNGTAFFGNEAEIKNNTRYQDFTSQKVK
B2: unnamed (protein)
chain: MNFPRASRLMQAAVLGGLMAVSAAATAQTNPYARGPNPTAASLEASAGPFTVRSFTVSRPSGYGAGTVYYPTNAGGTVGAIAIVPGYTARQSSIKWWGPRLASHGFVVITIDTNSTLDQPSSRSSQQMAALRQVASLNGTSSSPIYGKVDTARMGVMGWSMGGGGSLISAANNPSLKAAAPQAPWDSSTNFSSVTVPTLIFACENDSIAPVNSSALPIYDSMSRNAKQFLEINGGSHSCANSGNSNQALIGKKGVAWMKRFMDNDTRYSTFACENPNSTRVSDFRTANCS
B3: unnamed (protein)
chain: MKKLLKVLLIIFLVIVVLVIGLVIFLTIASGKQNAPKEYWNAIASEGTIEKEYNKLGSYEFESKVYDAPKVDSHDNNFVVYMPKEEGTYPLVVMVNGSGTPWDKYKAVFEHFASWGYVVVGCNYEISWDGKHASETLDFALNTKEIADKVDTSKVAVCGHSQGGEGAFNAALEYDNSDMYKAIISLSPTNQELALGLKWGFNLDTDDMYAYRLENVTIPTMIIAGTGKFDSETVTPLYKMEDMFEQLNTDVVMARLSNNVDHGAVLYEANGYVIAWLDYYLKGIETNGTAFFGNEAEIKNNTRYQDFTSQKV
B4: unnamed (protein)
chain: MQNPSAPVVETRQGALTGLTDENVHRWCGIPYAAPPVGDWRWRSPRPPERWDGVRDATAFSASSWQSSEYCQELGGGDPGQFSEDCLYLNVWSPVDRPGSLPVMVWLHGGGFTIGAGGLPPYHGKSLAARGVVVVTINYRLGHLGFFAHPALEGEEERVVHNFALLDQIAALEWVRENITAFGGDPHNVTLFGESAGARSVLSLLASPLAEGLFHKAIVQSGYTLPDTPRQQALQKGEALAAHFGLENATAEQLRAIPPESFWPLTAPLNIAPAPIVGDCVLPEAMLDVFFAARQHPVPVMIGSNSDEASVMAVFGIDLAGQIQKLRRERRFGLGLIKLLYPGVKGDEELGRQVCRDMAFTTMGYVVMQAQQRVGGLCWRYWFDYVAEAEHATYINGAWHGNEVPYVFDTLGQVEPSRQYVNERDLQFAARVADYWVSFARDAGTHDSLSGPTHWPACRKGRDVLLRIGVNKHAGFRLENRFMRARMSLFKRVMKHHVSLD
B5: unnamed (protein)
chain: MEKSVLIKGDNYDISGILSYKETVDKMPAVILCHGTGAQKNEVGDLFVILAEKLLQRGIASIRIDYAGCGDSKADQRELTFLGEVEDTKKAYQYICDLGCVDQKNIGILGFSQGARVVAELLKEMQEFTCVASWSGACQNGRGVFEGWFQEYYQEAEEHGYARIPMGWRDDLLLSKQWFDEIENTTPMDGLKKYTGPVLAVAGAADEIVPCSHTKEIMAEGTNEQSKMLILPGADHIFNVLSGDKTMSEHVLDVTADWFAEVMGGAKISK

Assays:
PET [1] = test: Proxy for plastic degradation [Released monomer concentration (HPLC/LC-MS) (TPA)]; conditions: pH 7
PET [2] = test: Proxy for plastic degradation [Released monomer concentration (HPLC/LC-MS) (MHET)]; conditions: pH 7

Row | Protein | Proxy for plastic degradation (PET [1]) [µM] | Proxy for plastic degradation (PET [2]; 37 °C) [µM] | other results
1 | B1 | 6 | – | –
2 | B2 | – | – | Proxy for plastic degradation (PET [2]; part of the chain shown): 370 µM
3 | B3 | – | – | Proxy for plastic degradation (PET [1]; 37 °C, part of the chain shown): 0 µM; Proxy for plastic degradation (PET [2]; 37 °C, part of the chain shown): 0 µM
4 | B4 | 2 | 0 | Proxy for plastic degradation (PET [1]; 37 °C): 0 µM; Proxy for plastic degradation (PET [2]): 0 µM
5 | B5 | 4 | 0 | –
